Laboratory results: paper PMC10762068, “Selective blockade of Cav1.2 (α1C) versus Cav1.3 (α1D) L-type calcium channels by the black mamba toxin calciseptine” (Nature Communications, 2024)

Assays:
[1] = system: Cav1.2 (ICav1.2) in isolated adult mouse ventricular myocytes; format: cell-based; conditions: L-calchin 5 µM; preliminary; n=7/N=2
[2] = system: calcium channel in rabbit cardiac myocytes; conditions: reduction of calcium channel amplitude; cited from earlier work
Text: (§1) A common short peptide between two Prolines at position 42 and 47 (PTAMWP) was predicted as the binding site for Cas and FS2 by Kini and co-workers[49]. […] Similar to Cas, block by L-calchin had no ef ...

[3] = system: isolated rat hearts; conditions: cited from earlier work
Text: as §1

[4] = system: total ICaL (ICav1.2+ICav1.3) in SAN myocytes from wild-type mice; test: ICaL, patch clamp, SAN myocytes from wild-type mice; format: cell-based, mouse; conditions: nifedipine 3 µM after Cas 1 µM; holding −55 mV
Description: (§2) Hearts from Wild-Type and Cav1.3^−/− mice were removed under general anesthesia consisting of 0.01 mg/g xylazine (2% Rompun; Bayer AG) and 0.1 mg/g ketamine (Imalgène;Merial) and immersed in a pre-warmed (36 °C) Tyrode solution containing (mM): 140 NaCl, 5.4 KCl, 1 MgCl2, 1.8 CaCl2, 5.5 D-glucose, and 5 Hepes (adjusted to pH 7.4 with NaOH). […] SAN tissue was excised and transferred into a low-Ca^2+ solution containing (mM): 140 NaCl, 5.4 KCl, 0.5 MgCl2, 0.2 CaCl2, 1.2 KH2PO4, 50 taurine, 5.5 D-glucose, 1 mg/mL BSA, and 5 Hepes–NaOH (adjusted to pH 6.9 with NaOH) for 5 min. Then, enzymatic digestion was carried out for 20-25 min at 36 °C in the low-Ca^2+ solution containing LiberaseTH Research Grade (0.15 mg/mL; Roche, Mannheim, Germany) and elastase (0.5 mg/mL; Worthington, Lakewood, NJ, USA). Digestion was stopped by washing the SAN in a “Kraftbrühe” (KB) medium containing (mM) 100 K-glutamate, 10 K-aspartate, 25 KCl, 10 KH2PO4, 2 MgSO4, 20 taurine, 5 creatine, 0.5 EGTA, 20 D-glucose, 5 Hepes, and 1 mg/mL BSA (adjusted to pH 7.2 with KOH). Single SAN cells were then dissociated from the SAN tissue by manual agitation using a flame-forged Pasteur’s pipette. To recover the automaticity of the SAN cells, Ca^2+ was gradually reintroduced in the cell’s storage solution to a final concentration of 1.8 mM. SAN cells were then left to rest for 1 h before recordings.
(§3) For patch-clamp recordings of SAN myocytes, cells were harvested in custom-made chambers with glass bottoms for cell attachment. Cells were then super-fused with Tyrode’s solution warmed at 36 °C before recording. Action potentials and ionic currents were recorded using an Axon multi-clamp patch-clamp 700B amplifier. Voltage-gated L-type Ca^2+ currents (ICaL) were recorded using standard whole cell patch-clamp configuration. For recording ICaL, we used an extracellular recording solution contained (mM): 135 tetraethylammonium chloride (TEA-Cl), 10 4-aminopyridine (4-AP), 1 MgCl2, 0.03 tetrodotoxin (TTX), 1 g/L Glucose, 2 CaCl2, 10 Hepes, (adjusted to pH = 7.2 with TEAOH). […] Pacemaker activity was recorded by the perforated patch-clamp technique using escin (40 µg/ml). For recording cell automaticity glass pipettes were filled with the intracellular solution contained (mM): 80 K-Aspartate, 50 KCl, 1 MgCl2, 5 HEPES, 2 CaCl2, 5 EGTA, 3 ATP-Na+ salt; pH was adjusted to 7.2 with KOH. Escin was dissolved in sterile H2O and added to the intracellular solution right before each experiment.
(§4) In all experiments of cellular electrophysiology, we employed synthetized analog of Cas, commercially available at Latoxan (ID: L8109). The native peptide was purified from the venom of Dendroaspis polylepis purchased from Latoxan, as previoulsly described. The pure peptide was obtained after gel filtration, cation exchange and C18 reversed phase chromatography. Its measured molecular mass (7036.26 Da average) was in accordance with the mass calculated from sequence data (7036.22 Da).

[5] = system: SAN myocytes from Wild-Type mice; test: Spontaneous action potentials, perforated patch-clamp, SAN pacemaker myocytes; format: cell-based, mouse; conditions: nifedipine (in Table 1 only 3 µM together with Cas)
Description: as §2, §3
We used an extracellular recording solution (Tyrode’s based) contained (mM): 140 NaCl, 5.4 KCl, 1 MgCl2, 1.8 CaCl2, 5 HEPES, 5.5 D-Glucose; pH was set to 7.4 with NaOH. AP parameters have been calculated as reported in Baudot et al.[10]. Data were analyzed using pCLAMP9 (Molecular Devices) and GraphPad Prism (GraphPad) software.
as §4

[6] = system: Cav1.2 and Cav1.3; conditions: cited from earlier work
Text: Despite the importance of dissecting the physiopathological roles of Cav1.2 and Cav1.3 channels in cardiac myocytes and neuronal cells, no selective pharmacological tool is currently available. […] Both distinct and complementary functions for Cav1.2 and Cav1.3 have been proposed in the central nervous system. For example, Cav1.2 is involved in hippocampal firing, spatial memory and LTP[52], as well as in the myelinisation process.

[7] = molecular target: recombinant Cav1.2 (α1C) L-type calcium channel, Cav1.2-GFP (UniProt Q13936)
[8] = molecular target: native mouse Cav1.2 L-type calcium channel in cardiac myocytes (mouse (endogenous in cardiac myocytes)) (UniProt Q01815)
[9] = molecular target: native mouse Cav1.2 L-type calcium channel in cardiac myocytes (mouse (endogenous in cardiac myocytes)) (UniProt Q01815); remark: listed apart in the source
[10] = molecular target: native mouse Cav1.2 L-type calcium channel in cardiac myocytes (mouse (endogenous in cardiac myocytes)) (UniProt Q01815); remark: listed apart in the source

Chain of native mouse Cav1.2 L-type calcium channel in cardiac myocytes (mouse (endogenous in cardiac myocytes)) (Q01815 whole entry): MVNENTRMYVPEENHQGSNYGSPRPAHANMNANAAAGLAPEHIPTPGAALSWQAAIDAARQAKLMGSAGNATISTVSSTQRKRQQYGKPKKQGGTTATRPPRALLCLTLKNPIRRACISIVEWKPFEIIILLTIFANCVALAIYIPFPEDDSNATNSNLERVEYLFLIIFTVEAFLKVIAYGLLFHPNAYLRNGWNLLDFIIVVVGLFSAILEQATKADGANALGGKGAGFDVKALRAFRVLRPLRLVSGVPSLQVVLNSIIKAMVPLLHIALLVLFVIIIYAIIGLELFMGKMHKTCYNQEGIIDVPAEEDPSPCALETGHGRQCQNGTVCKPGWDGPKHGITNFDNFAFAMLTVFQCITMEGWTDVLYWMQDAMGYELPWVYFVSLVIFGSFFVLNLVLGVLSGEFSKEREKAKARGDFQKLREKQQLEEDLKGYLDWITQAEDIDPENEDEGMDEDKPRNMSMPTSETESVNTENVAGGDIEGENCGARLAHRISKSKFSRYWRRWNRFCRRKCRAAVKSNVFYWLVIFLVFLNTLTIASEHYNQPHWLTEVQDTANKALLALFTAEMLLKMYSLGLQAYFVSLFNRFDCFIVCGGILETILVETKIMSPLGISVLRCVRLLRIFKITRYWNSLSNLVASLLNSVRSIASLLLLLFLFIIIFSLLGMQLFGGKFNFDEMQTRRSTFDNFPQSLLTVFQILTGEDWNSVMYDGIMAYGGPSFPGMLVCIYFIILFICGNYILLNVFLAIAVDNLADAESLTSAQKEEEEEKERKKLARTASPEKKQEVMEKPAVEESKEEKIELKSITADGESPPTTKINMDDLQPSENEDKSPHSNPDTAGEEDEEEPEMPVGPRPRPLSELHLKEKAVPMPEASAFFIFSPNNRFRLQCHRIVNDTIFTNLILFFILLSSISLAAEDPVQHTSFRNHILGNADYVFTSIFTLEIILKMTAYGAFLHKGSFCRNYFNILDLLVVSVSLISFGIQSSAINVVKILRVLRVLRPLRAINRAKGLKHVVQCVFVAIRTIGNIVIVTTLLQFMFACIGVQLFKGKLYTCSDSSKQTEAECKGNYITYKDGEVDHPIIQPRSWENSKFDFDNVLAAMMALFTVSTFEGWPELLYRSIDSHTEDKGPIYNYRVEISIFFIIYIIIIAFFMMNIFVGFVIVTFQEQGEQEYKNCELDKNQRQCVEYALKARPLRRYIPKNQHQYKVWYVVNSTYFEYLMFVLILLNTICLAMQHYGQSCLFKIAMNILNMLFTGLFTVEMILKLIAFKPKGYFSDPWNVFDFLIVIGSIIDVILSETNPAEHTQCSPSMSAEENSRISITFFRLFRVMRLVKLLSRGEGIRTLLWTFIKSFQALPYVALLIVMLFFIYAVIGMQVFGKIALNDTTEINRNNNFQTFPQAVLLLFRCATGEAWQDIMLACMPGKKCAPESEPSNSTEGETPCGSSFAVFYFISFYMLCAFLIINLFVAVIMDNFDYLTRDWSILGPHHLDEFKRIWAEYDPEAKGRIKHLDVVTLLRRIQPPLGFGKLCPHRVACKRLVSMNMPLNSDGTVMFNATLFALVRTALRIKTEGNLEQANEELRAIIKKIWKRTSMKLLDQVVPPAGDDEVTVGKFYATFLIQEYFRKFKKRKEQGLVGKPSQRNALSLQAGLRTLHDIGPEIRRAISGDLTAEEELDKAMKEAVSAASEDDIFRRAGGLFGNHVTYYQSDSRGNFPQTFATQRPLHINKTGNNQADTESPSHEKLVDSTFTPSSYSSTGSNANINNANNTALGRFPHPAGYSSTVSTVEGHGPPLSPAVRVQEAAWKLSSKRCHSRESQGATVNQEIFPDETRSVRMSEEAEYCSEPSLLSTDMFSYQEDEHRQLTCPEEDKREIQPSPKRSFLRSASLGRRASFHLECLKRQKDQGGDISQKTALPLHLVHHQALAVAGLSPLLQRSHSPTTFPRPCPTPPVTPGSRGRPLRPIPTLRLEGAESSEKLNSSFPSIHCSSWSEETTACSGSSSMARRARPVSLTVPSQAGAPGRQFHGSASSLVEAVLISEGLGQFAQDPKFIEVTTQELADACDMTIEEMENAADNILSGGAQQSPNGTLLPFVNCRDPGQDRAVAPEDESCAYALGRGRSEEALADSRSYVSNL
Chain of recombinant Cav1.2 (α1C) L-type calcium channel, Cav1.2-GFP (Q13936 other isoform, or with tags, fused parts or gaps): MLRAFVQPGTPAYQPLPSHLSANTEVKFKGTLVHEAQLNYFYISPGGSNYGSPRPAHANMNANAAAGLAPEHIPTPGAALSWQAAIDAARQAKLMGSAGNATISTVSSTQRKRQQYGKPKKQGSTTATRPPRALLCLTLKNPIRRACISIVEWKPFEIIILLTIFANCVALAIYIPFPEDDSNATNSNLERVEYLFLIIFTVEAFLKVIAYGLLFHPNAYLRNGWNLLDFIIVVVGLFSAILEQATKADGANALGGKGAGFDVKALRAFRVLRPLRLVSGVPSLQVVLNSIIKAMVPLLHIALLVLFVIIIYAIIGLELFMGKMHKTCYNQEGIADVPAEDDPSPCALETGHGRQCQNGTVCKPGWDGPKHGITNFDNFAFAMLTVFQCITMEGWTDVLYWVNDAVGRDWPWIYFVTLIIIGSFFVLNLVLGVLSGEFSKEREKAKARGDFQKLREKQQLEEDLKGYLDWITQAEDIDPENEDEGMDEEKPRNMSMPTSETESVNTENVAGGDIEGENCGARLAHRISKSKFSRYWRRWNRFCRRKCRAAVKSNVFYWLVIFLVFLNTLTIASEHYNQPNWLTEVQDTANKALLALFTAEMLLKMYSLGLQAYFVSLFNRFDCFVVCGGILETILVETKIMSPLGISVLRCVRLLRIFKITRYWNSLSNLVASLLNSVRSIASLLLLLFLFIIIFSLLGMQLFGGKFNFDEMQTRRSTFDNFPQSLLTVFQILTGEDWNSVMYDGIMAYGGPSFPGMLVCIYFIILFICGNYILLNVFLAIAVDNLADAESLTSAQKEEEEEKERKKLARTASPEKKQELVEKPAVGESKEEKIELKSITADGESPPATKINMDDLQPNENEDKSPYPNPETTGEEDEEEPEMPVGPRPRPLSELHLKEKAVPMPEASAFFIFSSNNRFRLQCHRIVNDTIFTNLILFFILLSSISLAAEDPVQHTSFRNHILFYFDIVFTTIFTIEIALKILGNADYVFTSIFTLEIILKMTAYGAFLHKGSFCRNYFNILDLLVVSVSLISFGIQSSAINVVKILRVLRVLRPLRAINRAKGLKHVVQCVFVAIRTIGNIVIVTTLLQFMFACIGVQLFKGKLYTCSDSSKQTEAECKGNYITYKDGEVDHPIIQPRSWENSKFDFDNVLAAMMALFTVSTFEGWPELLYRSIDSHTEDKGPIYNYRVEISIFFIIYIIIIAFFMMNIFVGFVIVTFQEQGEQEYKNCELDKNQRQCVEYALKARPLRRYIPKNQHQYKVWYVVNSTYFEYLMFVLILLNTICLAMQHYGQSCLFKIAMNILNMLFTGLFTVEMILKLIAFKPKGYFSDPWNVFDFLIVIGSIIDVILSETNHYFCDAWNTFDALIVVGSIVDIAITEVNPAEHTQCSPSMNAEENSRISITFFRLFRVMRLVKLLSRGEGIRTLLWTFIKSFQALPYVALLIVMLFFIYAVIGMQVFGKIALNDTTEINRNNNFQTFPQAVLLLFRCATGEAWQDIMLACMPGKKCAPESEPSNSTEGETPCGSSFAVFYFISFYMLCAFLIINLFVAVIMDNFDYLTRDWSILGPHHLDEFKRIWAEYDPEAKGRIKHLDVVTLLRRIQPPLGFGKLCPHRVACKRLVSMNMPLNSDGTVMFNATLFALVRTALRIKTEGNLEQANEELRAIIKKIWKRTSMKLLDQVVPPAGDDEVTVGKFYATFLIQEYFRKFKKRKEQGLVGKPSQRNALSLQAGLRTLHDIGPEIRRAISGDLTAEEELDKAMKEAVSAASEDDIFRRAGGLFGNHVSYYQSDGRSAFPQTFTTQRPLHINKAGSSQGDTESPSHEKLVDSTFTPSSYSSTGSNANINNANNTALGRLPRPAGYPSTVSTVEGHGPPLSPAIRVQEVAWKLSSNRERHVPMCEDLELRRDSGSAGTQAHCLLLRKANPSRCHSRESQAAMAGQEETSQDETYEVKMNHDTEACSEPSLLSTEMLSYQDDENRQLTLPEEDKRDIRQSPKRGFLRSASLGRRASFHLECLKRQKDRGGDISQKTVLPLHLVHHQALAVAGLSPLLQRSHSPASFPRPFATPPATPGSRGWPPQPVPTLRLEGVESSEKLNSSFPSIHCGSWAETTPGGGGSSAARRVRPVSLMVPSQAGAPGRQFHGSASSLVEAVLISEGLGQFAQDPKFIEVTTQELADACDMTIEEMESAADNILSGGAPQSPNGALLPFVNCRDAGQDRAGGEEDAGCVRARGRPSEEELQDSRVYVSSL

Molecule: PTAMWP [L-calchin, short peptide between two Prolines at position 42 and 47 (PTAMWP) of Cas and FS2]
- reduction of ICav1.2 [1]: ≈ 30%
- IC50 [2]: ~5000 nM
- effect on peak systolic pressure [3]: reducing peak systolic pressure
- effect on heart rate ([3]; ex vivo): had no effect on heart rate

Molecule: COC(=O)C1=C(C)NC(C)=C(C(=O)OC)C1c1ccccc1[N+](=O)[O-] [nifedipine, reference compound]
- block of residual ICaL (Cav1.3-mediated) [4]: totally blocked
- effect on pacemaker activity of SAN myocytes [5]: robustly slows pacemaker activity

Molecule: COc1ccc([C@@H]2Sc3ccccc3N(CCN(C)C)C(=O)[C@@H]2OC(C)=O)cc1 [Diltiazem]
- selectivity between Cav1.2 and Cav1.3 [6]: without significant selectivity

Molecule: COc1ccc(CCN(C)CCCC(C#N)(c2ccc(OC)c(OC)c2)C(C)C)cc1OC (stereo not drawn) [Verapamil]
- selectivity between Cav1.2 and Cav1.3 [6]: without significant selectivity

B1: calciseptine, synthetized analog (Latoxan L8109) (peptide)
chain: RICYIHKASLPRATKTCVENTCYKMFIRTQREYISERGCGCPTAMWPYQTECCKGDRCNK
- IC50 of inhibition of I (Cav1.2), whole-cell patch clamp on transfected HEK-293T cells (holding potential −60 mV, test 0 mV), dose-effect relationship [7]: 92 nM
- inhibition of I (Cav1.2) in averaged current-to-voltage relationships, 300 nM Cas, membrane voltages from −20 mV to +30 mV, transfected HEK-293T cells [7]: 60%
- percent inhibition of I (Cav1.2) in transfected HEK-293T cells, one-step protocol (−60 mV to 0 mV), Cas 100 nM to 1 µM (37% at 100 nM, 70% at 300 nM, 80% at 1 µM) [7]: 80%
- reduction of total ICaL (I (Cav1.2)+I (Cav1.3)) in wild-type mouse SAN myocytes, voltage clamp, 1 µM Cas [8]: 45%
- degree of inhibition of ICaL by 300 nM Cas, step to 0 mV from −60 mV, stimulation at 0.2 Hz [9]: 62%
- degree of inhibition of ICaL by 300 nM Cas, step to 0 mV from −60 mV, stimulation at 1 Hz [9]: 63%
- degree of inhibition of ICaL by 300 nM Cas, step to 0 mV from −60 mV, stimulation at 5 Hz [9]: 58%
- percent block of Cav1.2-mediated ICaL in Cav1.3−/− SAN myocytes, 300 nM Cas, step to 0 mV from a holding potential of −40 mV [9]: 68%
- percent block of Cav1.2-mediated ICaL in Cav1.3−/− SAN myocytes, 300 nM Cas, step to 0 mV from a holding potential of −60 mV [9]: 67%

Molecule: PTAMWP [L-calchin]
- reduction of I (Cav1.2) in dissociated mouse ventricular myocytes by synthetic L-calchin (preliminary experiments; concentration not stated) [10]: 30%
